B1: rhGDF15: Recombinant human GDF15 (rhGDF15; R&D Systems; 957-GD-025), growth differentiation factor 15 protein (protein, listed as Homo sapiens)
chain: ARARNGDHCPLGPGRCCRLHTVRASLEDLGWADWVLSPREVQVTMCIGACPSQFRAANMHAQIKTSLHRLKPDTVPAPCCVPASYNPMVLIQKTDTGVSLQTYDDLLAKDCHCI

Assays:
Kupffer cells = assay: GDF15 mRNA expression after palmitate treatment, Kupffer cells; type: cell-based; details: for increase in GDF15 mRNA expression: after 6 hours
Procedure: Primary hepatic cells were isolated and differentiated into hepatocytes, HSCs, Kupffer cells, and liver sinusoidal endothelial cells (LSECs). Kupffer cells are macrophages present in the liver, and are known to play an essential role in the initiation of inflammation. To distinguish Kupffer cells and LSECs, magnetic-activated cell sorting (MACS) was performed using the MiniMACS™ separator system (MiltenyiBiotec, Seoul, Korea). The purity of LSECs was evaluated by fluorescence-activated cell sorting using anti-PE antibody (purity of 90% or higher). Primary cells were cultured in 1.5 mL of a serum-free medium for 4 hours, and treated with 5(w/w)% of bovine serum albumin (BSA, control), 200 μM palmitate/5(w/w)% BSA solution, and 500 μM palmitate/5(w/w)% BSA, respectively. After 3 and 6 hours, cells were collected and further analyzed. Reverse-transcription polymerase chain reaction (RT-PCR) and real-time PCR were performed to assess the expression of GDF15 mRNA after palmitate treatment.

primary hepatocytes = assay: rhGDF15 treatment of primary hepatocytes, immunoblotting; type: cell-based, mouse; details: FIG. 4D
Procedure: (§1) Recombinant human GDF15 (rhGDF15; R&D Systems; 957-GD-025) was added to LX-2 cells (human hepatic stellate cells, KAIST), cultured in the presence of 100 ng/mL GDF15 and 10 ng/mL TGF-β, and primary hepatocytes, directly isolated from the mouse liver, at […] per 3×10^5 cells/6 wells. The levels of fibrosis markers, such as alpha-smooth muscle actin (α-SMA) and collagen 1, were assessed by immunoblotting, immunohistochemistry, and immunofluorescence staining.

[1] = system: LX-2 cells (human hepatic stellate cells); assay: rhGDF15 treatment of LX-2 cells, fibrosis markers by immunoblotting and immunofluorescence; type: cell-based
Procedure: as §1

| Molecule | increase in GDF15 mRNA expression (Kupffer cells; 200 μM, P=0.009, FIG. 5B) [fold] | increase in GDF15 mRNA expression level (Kupffer cells; 500 μM, after 3 hours, P=0.004, FIG. 5A) | increase in GDF15 mRNA expression (Kupffer cells; 500 μM, P=0.032, FIG. 5B) [fold] | phosphorylation of SMAD2 and SMAD3 (primary hepatocytes) | cell apoptosis ([1]; LX-2 cells, FIG. 4A) | expression of fibrosis markers α-SMA and collagen 1 ([1]; LX-2 cells, immunoblotting, FIG. 4A) | α-SMA expression, immunofluorescent staining ([1]; LX-2 cells, treatment for 12 hours, FIG. 4B) | acute stimulatory effect on hepatocytes ([1]; after 12 hours) | time to increase of α-SMA level after treatment ([1]; after GDF15 treatment) [h] | time to induction of SMAD phosphorylation after treatment ([1]; after GDF15 treatment) [h] | phosphorylation of SMAD2 and SMAD3 ([1]; printed as human hepatocytes, FIG. 4C (LX-2 cells)) |
| --- | --- | --- | --- | --- | --- | --- | --- | --- | --- | --- | --- |
| CCCCCCCCCCCCCCCC(=O)O [palmate, palmitate] | 2.5 | approximately 2 fold | 1.5 | – | – | – | – | – | – | – | – |
| B1 | – | – | – | upregulating | not influenced | increased | high expression | remarkably reduced | ≤ 12 | ≤ 3 | increasing |

— patent publication US20200292553A1, “COMPOSITION FOR PREDICTING OR DIAGNOSING LIVER DISEASE, AND LIVER DISEASE PREDICTION OR DIAGNOSIS METHOD USING SAME” (SEOUL NATIONAL UNIVERSITY HOSPITAL, priority 2017, published 2020)
